According to patent US20200223889A1 (Novo Nordisk, published 2020):
Positions of bridges follow the written chain, without caps; N, C: chain ends. Non-standard residues stand in square brackets, D forms with d. Cit = NC(=O)NCCC[C@H](N)C(=O)O; Orn = NCCC[C@H](N)C(=O)O; Thz = O=C(O)[C@@H]1CSCN1; Api = NC1(C(=O)O)CCNCC1

B1: Chem. 120 (peptide)
peptide: cyclo(C[Thz]H[dF]HWCAHE[Orn]R)
modifications: disulfide 1-7
SMILES: C[C@@H]1NC(=O)[C@@H]2CSSC[C@H](NC(=O)[C@H](CCCNC(=N)N)NC(=O)[C@H](CCCN)NC(=O)[C@H](CCC(=O)O)NC(=O)[C@H](Cc3c[nH]cn3)NC1=O)C(=O)N1CSC[C@H]1C(=O)N[C@@H](Cc1c[nH]cn1)C(=O)N[C@H](Cc1ccccc1)C(=O)N[C@@H](Cc1c[nH]cn1)C(=O)N[C@@H](Cc1c[nH]c3ccccc13)C(=O)N2
B2: Chem. 51 (peptide)
peptide: cyclo(CEH[dF]RWCEH[dF]RW)
modifications: disulfide 1-7
SMILES: N=C(N)NCCC[C@@H]1NC(=O)[C@@H](Cc2ccccc2)NC(=O)[C@H](Cc2c[nH]cn2)NC(=O)[C@H](CCC(=O)O)NC(=O)[C@@H]2CSSC[C@H](NC(=O)[C@H](Cc3c[nH]c4ccccc34)NC1=O)C(=O)N[C@@H](CCC(=O)O)C(=O)N[C@@H](Cc1c[nH]cn1)C(=O)N[C@H](Cc1ccccc1)C(=O)N[C@@H](CCCNC(=N)N)C(=O)N[C@@H](Cc1c[nH]c3ccccc13)C(=O)N2
notes: also called c[c[Cys-Glu-His-D-Phe-Arg-Trp-Cys]-Glu-His-D-Phe-Arg-Trp]
B3: Chem. 62 (peptide)
peptide: cyclo(CPH[dF]HWCAKKKW)
modifications: disulfide 1-7
notes: also called c[c[Cys-Pro-His-D-Phe-His-Trp-Cys]-Ala-Lys-Lys-Lys-Trp]
B4: Chem. 55 (peptide)
peptide: cyclo(CKH[dF][Cit]WCKH[dF][Cit]W)
modifications: disulfide 1-7
SMILES: NCCCC[C@@H]1NC(=O)[C@@H]2CSSC[C@H](NC(=O)[C@H](Cc3c[nH]c4ccccc34)NC(=O)[C@H](CCCNC(N)=O)NC(=O)[C@@H](Cc3ccccc3)NC(=O)[C@H](Cc3c[nH]cn3)NC1=O)C(=O)N[C@@H](CCCCN)C(=O)N[C@@H](Cc1c[nH]cn1)C(=O)N[C@H](Cc1ccccc1)C(=O)N[C@@H](CCCNC(N)=O)C(=O)N[C@@H](Cc1c[nH]c3ccccc13)C(=O)N2
notes: also called c[c[Cys-Lys-His-D-Phe-Cit-Trp-Cys]-Lys-His-D-Phe-Cit-Trp]
B5: Chem. 5 (peptide)
peptide: cyclo(CH[dF]RWACH[dF]RWA)
modifications: disulfide 1-7
SMILES: C[C@@H]1NC(=O)[C@H](Cc2c[nH]c3ccccc23)NC(=O)[C@H](CCCNC(=N)N)NC(=O)[C@@H](Cc2ccccc2)NC(=O)[C@H](Cc2c[nH]cn2)NC(=O)[C@@H]2CSSC[C@H](NC1=O)C(=O)N[C@@H](Cc1c[nH]cn1)C(=O)N[C@H](Cc1ccccc1)C(=O)N[C@@H](CCCNC(=N)N)C(=O)N[C@@H](Cc1c[nH]c3ccccc13)C(=O)N[C@@H](C)C(=O)N2
notes: also called c[c[Cys-His-D-Phe-Arg-Trp-Ala-Cys]-His-D-Phe-Arg-Trp-Ala]
B6: Chem. 53 (peptide)
peptide: cyclo(CEH[dF]HWCEH[dF]HW)
modifications: disulfide 1-7
SMILES: O=C(O)CC[C@@H]1NC(=O)[C@@H]2CSSC[C@H](NC(=O)[C@H](Cc3c[nH]c4ccccc34)NC(=O)[C@H](Cc3c[nH]cn3)NC(=O)[C@@H](Cc3ccccc3)NC(=O)[C@H](Cc3c[nH]cn3)NC1=O)C(=O)N[C@@H](CCC(=O)O)C(=O)N[C@@H](Cc1c[nH]cn1)C(=O)N[C@H](Cc1ccccc1)C(=O)N[C@@H](Cc1c[nH]cn1)C(=O)N[C@@H](Cc1c[nH]c3ccccc13)C(=O)N2
notes: also called c[c[Cys-Glu-His-D-Phe-His-Trp-Cys]-Glu-His-D-Phe-His-Trp]
B7: Chem. 50 (peptide)
peptide: cyclo(C[Api]H[dF]HWC[Api]H[dF]HW)
modifications: disulfide 1-7
SMILES: O=C1N[C@H]2CSSC[C@H](NC(=O)[C@H](Cc3c[nH]c4ccccc34)NC(=O)[C@H](Cc3c[nH]cn3)NC(=O)[C@@H](Cc3ccccc3)NC(=O)[C@H](Cc3c[nH]cn3)NC(=O)C3(CCNCC3)NC2=O)C(=O)NC2(CCNCC2)C(=O)N[C@@H](Cc2c[nH]cn2)C(=O)N[C@H](Cc2ccccc2)C(=O)N[C@@H](Cc2c[nH]cn2)C(=O)N[C@H]1Cc1c[nH]c2ccccc12
notes: also called c[c[Cys-ACP-His-D-Phe-His-Trp-Cys]-ACP-His-D-Phe-His-Trp]
B8: Chem. 1 (peptide)
peptide: cyclo(CH[dF]RWECH[dF]RWE)
modifications: disulfide 1-7
SMILES: N=C(N)NCCC[C@@H]1NC(=O)[C@@H](Cc2ccccc2)NC(=O)[C@H](Cc2c[nH]cn2)NC(=O)[C@@H]2CSSC[C@H](NC(=O)[C@H](CCC(=O)O)NC(=O)[C@H](Cc3c[nH]c4ccccc34)NC1=O)C(=O)N[C@@H](Cc1c[nH]cn1)C(=O)N[C@H](Cc1ccccc1)C(=O)N[C@@H](CCCNC(=N)N)C(=O)N[C@@H](Cc1c[nH]c3ccccc13)C(=O)N[C@@H](CCC(=O)O)C(=O)N2
notes: also called c[c[Cys-His-D-Phe-Arg-Trp-Glu-Cys]-His-D-Phe-Arg-Trp-Glu]
B9: Chem. 119 (peptide)
peptide: cyclo(C[Thz]H[dF]HWCA[Orn]E[Orn]R)
modifications: disulfide 1-7
SMILES: C[C@@H]1NC(=O)[C@@H]2CSSC[C@H](NC(=O)[C@H](CCCNC(=N)N)NC(=O)[C@H](CCCN)NC(=O)[C@H](CCC(=O)O)NC(=O)[C@H](CCCN)NC1=O)C(=O)N1CSC[C@H]1C(=O)N[C@@H](Cc1c[nH]cn1)C(=O)N[C@H](Cc1ccccc1)C(=O)N[C@@H](Cc1c[nH]cn1)C(=O)N[C@@H](Cc1c[nH]c3ccccc13)C(=O)N2
B10: Chem. 52 (peptide)
peptide: cyclo(CKH[dF]HWCKH[dF]HW)
modifications: disulfide 1-7
SMILES: NCCCC[C@@H]1NC(=O)[C@@H]2CSSC[C@H](NC(=O)[C@H](Cc3c[nH]c4ccccc34)NC(=O)[C@H](Cc3c[nH]cn3)NC(=O)[C@@H](Cc3ccccc3)NC(=O)[C@H](Cc3c[nH]cn3)NC1=O)C(=O)N[C@@H](CCCCN)C(=O)N[C@@H](Cc1c[nH]cn1)C(=O)N[C@H](Cc1ccccc1)C(=O)N[C@@H](Cc1c[nH]cn1)C(=O)N[C@@H](Cc1c[nH]c3ccccc13)C(=O)N2
notes: also called c[c[Cys-Lys-His-D-Phe-His-Trp-Cys]-Lys-His-D-Phe-His-Trp]
B11: Chem. 54 (peptide)
peptide: cyclo(CRH[dF][Cit]WCRH[dF][Cit]W)
modifications: disulfide 1-7
SMILES: N=C(N)NCCC[C@@H]1NC(=O)[C@@H]2CSSC[C@H](NC(=O)[C@H](Cc3c[nH]c4ccccc34)NC(=O)[C@H](CCCNC(N)=O)NC(=O)[C@@H](Cc3ccccc3)NC(=O)[C@H](Cc3c[nH]cn3)NC1=O)C(=O)N[C@@H](CCCNC(=N)N)C(=O)N[C@@H](Cc1c[nH]cn1)C(=O)N[C@H](Cc1ccccc1)C(=O)N[C@@H](CCCNC(N)=O)C(=O)N[C@@H](Cc1c[nH]c3ccccc13)C(=O)N2
notes: also called c[c[Cys-Arg-His-D-Phe-Cit-Trp-Cys]-Arg-His-D-Phe-Cit-Trp]
B12: Chem. 121 (peptide)
peptide: cyclo(CPH[dF]HWCAH[dK][dK]R)
modifications: disulfide 1-7
SMILES: C[C@@H]1NC(=O)[C@@H]2CSSC[C@H](NC(=O)[C@H](CCCNC(=N)N)NC(=O)[C@@H](CCCCN)NC(=O)[C@@H](CCCCN)NC(=O)[C@H](Cc3c[nH]cn3)NC1=O)C(=O)N1CCC[C@H]1C(=O)N[C@@H](Cc1c[nH]cn1)C(=O)N[C@H](Cc1ccccc1)C(=O)N[C@@H](Cc1c[nH]cn1)C(=O)N[C@@H](Cc1c[nH]c3ccccc13)C(=O)N2
B13: Chem. 118 (peptide)
peptide: cyclo(C[Thz]H[dF]HWCKR)
modifications: disulfide 1-7
SMILES: N=C(N)NCCC[C@@H]1NC(=O)[C@H](CCCCN)NC(=O)[C@@H]2CSSC[C@H](NC1=O)C(=O)N1CSC[C@H]1C(=O)N[C@@H](Cc1c[nH]cn1)C(=O)N[C@H](Cc1ccccc1)C(=O)N[C@@H](Cc1c[nH]cn1)C(=O)N[C@@H](Cc1c[nH]c3ccccc13)C(=O)N2

Assays:
[1] = target: human melanocortin 1 receptor (human, UniProt Q01726 1-317); test: cell-based or functional assay
[2] = target: T1, human melanocortin 4 receptor (human, UniProt P32245 1-332); test: cell-based or functional assay
[3] = target: T1, human melanocortin 4 receptor; test: competition with 125-NDP-α-MSH, BHK human MC4R membranes
Description: In order to assess the binding affinity of the selected compounds for the human MC4R competitive binding assays was performed with radiolabeled NDP-alpha MSH (¹²⁵NDP-α-MSH).
The assay was performed in 96-well filterplates (Unifilter) using BHK cells stably expressing the human MC4 receptor.
The BHK cell membranes were prepared from frozen or fresh cells that were homogenized in 20 mM HEPES pH 7.1, 5 mM MgCl₂, 1 mg/ml bacitracin (buffer 1) and centrifuged at 15000 rpm at 4° C., 10 min in a Sorvall RC 5B plus, SS-34 rotor. The supernatant was discarded, and the pellets were re-suspended in buffer 1, homogenized and centrifuged two more times. The final pellets were re-suspended in buffer 1 and the protein concentration was measured and adjusted with buffer 1 to 5 mg/ml and the membrane preparation was kept at −80° C. until assay. The assay was run on a dilution of this cell membrane suspension without any further preparation. The suspension was diluted to give maximally 10% specific binding, i.e. to approx. 50-100 fold dilution, optimized after each membrane preparation. The assay was performed in a total volume of 200 μl: 50 μl of cell suspension, 50 μl of ¹²⁵NDP-α-MSH (apx. […] in final concentration), 50 μl of test compound and 50 μl binding buffer were mixed and incubated for 2 h at 25° C. (binding buffer: 25 mM HEPES, pH 7.0, 1 mM CaCl₂), 1 mM MgSO₄, 1 mM EGTA, 0.005% Tween™ 20 and 0.1% HSA or, alternatively, 0.1% ovalbumin (Sigma; catalogue No. A-5503)). Test compounds were dissolved in 100% DMSO and diluted in binding buffer in a dose range from 1 μM to 0.001 nM. Radiolabelled ligand and membranes were diluted in binding buffer. The incubation was stopped by dilution with 8×100 μl ice-cold 0.9% NaCl. The radioactivity retained on the filters was counted using a Packard Topcounter. The data were analysed by non-linear regression analysis of binding curves, using the Windows™ program GraphPad™ Prism (GraphPad Software, USA).

Sequence of human melanocortin 1 receptor (Q01726 whole entry): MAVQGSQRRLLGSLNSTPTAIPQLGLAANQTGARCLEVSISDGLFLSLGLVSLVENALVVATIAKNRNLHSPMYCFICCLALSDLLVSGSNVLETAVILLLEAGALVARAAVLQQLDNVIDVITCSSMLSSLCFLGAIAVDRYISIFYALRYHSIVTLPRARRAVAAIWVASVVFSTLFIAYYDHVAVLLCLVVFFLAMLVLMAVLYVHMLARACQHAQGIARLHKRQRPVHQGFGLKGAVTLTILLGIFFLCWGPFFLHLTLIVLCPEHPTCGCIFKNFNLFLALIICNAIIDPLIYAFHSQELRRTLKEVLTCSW
T1 sequence (P32245 whole entry): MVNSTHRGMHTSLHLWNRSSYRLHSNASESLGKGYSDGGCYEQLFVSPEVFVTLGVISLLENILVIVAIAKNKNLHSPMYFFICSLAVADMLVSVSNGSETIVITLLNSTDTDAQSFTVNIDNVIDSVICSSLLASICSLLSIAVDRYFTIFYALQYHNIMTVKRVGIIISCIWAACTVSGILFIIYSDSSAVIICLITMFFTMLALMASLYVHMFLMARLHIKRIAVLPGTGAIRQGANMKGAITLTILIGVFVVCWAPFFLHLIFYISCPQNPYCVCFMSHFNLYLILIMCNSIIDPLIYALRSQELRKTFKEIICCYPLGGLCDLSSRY

| Binder | MC1R cAMP EC50 [1] | MC4R cAMP EC50 [2] | Ki [3] |
| --- | --- | --- | --- |
| B1 | 294 nM | 0.08 nM | – |
| B2 | 2.69 nM | 0.2 nM | 0.5 nM |
| B3 | > 1 nM | 0.17 nM | 0.13 nM |
| B4 | 4.14 nM | 0.1 nM | 0.33 nM |
| B5 | 6.47 nM | 0.21 nM | 0.99 nM |
| B6 | > 10 nM | 11 nM | 9.47 nM |
| B7 | 66.2 nM | 1.17 nM | 19.9 nM |
| B8 | 198 nM | 14.9 nM | 47.9 nM |
| B9 | 99.6 nM | 0.06 nM | – |
| B10 | 47.7 nM | 0.23 nM | 0.76 nM |
| B11 | 0.29 nM | 0.04 nM | 0.21 nM |
| B12 | 189 nM | 0.24 nM | – |
| B13 | 4380 nM | 3.53 nM | – |
